The record followed here is the supplement of paper PMC9170038.

The test system of the series is MS2 coat protein. Briefly: apparent KD of MS2 coat protein; higher = weaker reporter binding. To be noted: Eterna round: R107. A digest of the protocol:
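The buffer was 100 mM Tris-HCl pH 7.5 with 80 mM KCl and 4 mM MgCl2, used without or with constant ligand. In it, RNA switches transcribed on-chip from Illumina sequencing clusters were titrated with SNAP-549-labelled MS2 coat protein in twofold steps from 0.7 or 1.5 nM to 3 µM. Apparent KD for each design is the median of its normalised cluster binding-curve fits.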

The mark [1] stands for this setting: input ligand: theophylline 20 uM.
The mark [2] stands for this setting: input ligand: theophylline 2 mM.
[3] abbreviates: input ligand: tryptophan 2.4 mM.

Take “GCAUCCUAGUCGGCCGCCACUGCAUCACCGGUCCUAGGUGAUCAACAUGAGGAUCACCCAUGUAGCAGGACCGGGACUAGGAUGC [(Trp1)-(MT)''-(MT)'-(Ms2)-(Trp2)_Design2]”: the “apparent KD of MS2 coat protein” value is, setting by setting: (input ligand: arginine 13.2 mM) 345 nM; (input ligand: none) 491 nM; under setting [1], 320 nM; under setting [2], 636 nM; under setting [3], 19.9 nM.
The matching figures for “CGUAUGUAGACGGCCGCCACUGGAACAAGAGGAUCACCCUUGUACAGGGUGGGACUAUCGAGAGUCAGGACCGGGUCUACAUACA [Tryp B Ex t2]”: 112 nM, 150 nM, 190 nM, 140 nM and 19.7 nM.
In the case of “ACAUGAGGAUCACCCAUGUGAAGCAGGGUACGAGGACCGGUACGGCCGCCACUCGAGCAUUAUACCGAGUGAAUGGCAACGAUGU [whbob_Ex_trypto A_2s17]”, the “apparent KD of MS2 coat protein” value came out at 14.4 nM (input ligand: arginine 13.2 mM), 19 nM under setting [1] and 21.1 nM under setting [2].
For the sequence “GAGCUGAUGUAGGCCGGAUAUCCGGGAGAUACCAGUACAGAAAUGUACCCUUGGCAGCUCUUUCUUACAUGAGGAUCACCCAUGU [Ex Theophylline A 27]”, the “apparent KD of MS2 coat protein” value by setting is: (input ligand: arginine 13.2 mM) 11.5 nM; (input ligand: none) 13.1 nM; under setting [1], 15.4 nM; under setting [2], 19.1 nM; under setting [3], 13.4 nM.
The matching figures for “AUCAUGGCCAUCGAUACCAGCUACAUGAGGAUCACCCAUGUAAACGGCCCGGUGAGAUGUAGCCCUUGGCAGCGAAGGGUCAAGG [Ratimatiqu]”: 12.4 nM, 16.5 nM, 23.1 nM, 120 nM and 17 nM.
Consider “GAAUUAUGACGUGAUACCAGUGGUCAAUACUGGGAACUUAACAUGAGGAUCACCCAUGUCCACCCUUGGCAGCACGCUGACAAUC [theeternabot_exclusion_MS2_Theo_B_14]”, for which the “apparent KD of MS2 coat protein” value came out at 43.5 nM (input ligand: arginine 13.2 mM), 133 nM under setting [1] and 79.6 nM under setting [3].
On to “GGUCUCUGGAGCGAUACCAGCUUGAUCGUACUAGCCUGGUACAUGAGGAUCACCCAUGUAAGCCCUUGGCAGCGCUCCAGAGACC [#1 Exclusion - Theophylline B Attempt #8 (HarryS)]”, for which the “apparent KD of MS2 coat protein” value reads like this: (input ligand: arginine 13.2 mM) 11.8 nM; (input ligand: none) 12.7 nM; under setting [1], 15.8 nM; under setting [2], 21.4 nM; under setting [3], 12.1 nM.
For “GUCGGAGUCUGAAGGAGCGACAUGAGGAUCACCCAUGUCUCCCGUUAUGGGAGUUCCUUAGGUCAGGUAGGUCGCAGACUCCGAC [#1 Exclusion - Arginine B Attempt #25 (Inspired by Omei)]”, the “apparent KD of MS2 coat protein” value amounted to 78.1 nM (input ligand: arginine 13.2 mM); 141 nM (input ligand: none); 145 nM under setting [1]; 144 nM under setting [2]; 140 nM under setting [3].
With “AGAGUUAGACAAAAGUCUAGCUCACCAGAAGGAGCGUCCGAAAGGACAGGUAGGUCGCUGGUGCAUGAGGAUCACCCAUGCUCCU [ArgAS 19 #OpenEnded #AlternativeMS2]”, the “apparent KD of MS2 coat protein” value runs as follows: (input ligand: arginine 13.2 mM) 66.6 nM; (input ligand: none) 204 nM; under setting [1], 171 nM; under setting [2], 243 nM; under setting [3], 211 nM.
The matching figures for “UCGCCCGGGUCGGCCGCCACUGAGGUGAUAUGACAUGAGGAUCACCCAUGUUGUCAUGUGGAACAUAGGACCGGGACCCGGGCGA [Exclusion - Tryptophan B Attempt #2 (HarryS)]”: 15.7 nM, 18.5 nM, 47.6 nM, 19.6 nM and 17.8 nM.
With “ACAUGAGGAUCACCCAUGUACGGUAUCAAUCGAGGACCGGUACGGCCGCCACUCGGAAAUAGAAGCGAUUAUUAGUGUUCUUUGU [Same State - Tryptophan A / A]”, the “apparent KD of MS2 coat protein” value worked out at 16.1 nM (input ligand: arginine 13.2 mM), 19 nM under setting [1] and 16.6 nM under setting [2].
Take “ACGCGUCAAGAGUAAAAUCCGUCAAGUGAUACCAGCCACAACGUAGGCCCUUGGCAGCACAUGAGGAUCACCCAUGUAAUAAGGA [Gedigerace]”: the “apparent KD of MS2 coat protein” value runs as follows: (input ligand: arginine 13.2 mM) 42.4 nM; (input ligand: none) 33.3 nM; under setting [1], 53.4 nM; under setting [2], 670 nM; under setting [3], 22.5 nM.
In the case of “ACUCGGUGUUUGUUGCUCCGAGUACGUGAUACCAGUUAAUUUUAUGGCCCUUGGCAGCAUGGGACAUGAGGAUCACCCAUGUUUA [#04 SameState-TheophyllineA]”, the “apparent KD of MS2 coat protein” value (input ligand: arginine 13.2 mM) came out at 125 nM, the “apparent KD of MS2 coat protein” value under setting [1] amounted to 344 nM and the “apparent KD of MS2 coat protein” value under setting [3] is 318 nM.
For the sequence “AGGACAUCGGGAAGGAGCGCAUCCAAACCACACAUGAGGAUCACCCAUGUAUAAAUAUGCAUGCAGGUAGGUCGCCCGGUGUCUC [Veaza]”, the “apparent KD of MS2 coat protein” value runs as follows: (input ligand: arginine 13.2 mM) 77 nM; (input ligand: none) 109 nM; under setting [1], 140 nM; under setting [2], 137 nM; under setting [3], 108 nM.
“UAUUAUCAGUCGGCCGCCACUGACACAUGAGGAUCACCCAUGUAAUUUGGGUUAUAUAUAAAUUACAGGACCGGGACAAAUGCUA [JR_Nu13_ExcTryptoB_Sub025]”: the “apparent KD of MS2 coat protein” value stood at 161 nM (input ligand: arginine 13.2 mM), 366 nM under setting [1] and 368 nM under setting [2].
“GGAGGUACCCGAAGGAGCGACAUGAGGAUCACCCAUGUCUCCCGUUAUGGGAGUUCCUUAGGUCAGGUAGGUCGCGGGUACCUCC [#1 Exclusion - Arginine B Attempt #1 (Inspired by Omei)]”: the “apparent KD of MS2 coat protein” value by setting is: (input ligand: arginine 13.2 mM) 92.7 nM; (input ligand: none) 124 nM; under setting [1], 162 nM; under setting [2], 128 nM; under setting [3], 109 nM.
